From patent US20200199217A1 (published 2020) come the findings set out here.

As usually defined, the kon is the second-order rate constant of association. A high value points to faster complex formation.

The target of assay [1] is T1, hu-IL-36β (human).
T1 construct: Used biotinylated in SPR and some ELISAs; treated here as the same molecule; also called human IL-36β; IL-36b
T1 chain: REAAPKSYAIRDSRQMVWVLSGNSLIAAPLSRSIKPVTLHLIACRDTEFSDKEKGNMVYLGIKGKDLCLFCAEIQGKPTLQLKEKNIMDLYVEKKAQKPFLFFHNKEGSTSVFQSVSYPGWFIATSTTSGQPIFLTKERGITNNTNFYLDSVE
The assay can be described thus: SPR (Biacore 8K), biotinylated hu-IL-36β captured, Fab injected, 37 C. The protocol:
Briefly, a 1:4 dilution of Biotin CAPture Reagent (GE) into HBS-EP buffer (0.01 M HEPES pH 7.4, 0.15 M NaCl, 3 mM EDTA, 0.005% Surfactant P20) was applied to a CAP sensor chip at 2 uL/min flow rate. For kinetics measurements, 6 nM biotinylated human IL-36β was captured at 10 uL/min to achieve ˜50 response units in the second flow cell (FC2). FC1 was kept as a reference. Next, […] serial dilutions of Fab in HBS-P buffer (0.01M HEPES pH 7.4, 0.15M NaCl, 0.005% surfactant P20) from low (3.125 nM) to high (200 nM) were injected (flow rate: 10 uL/min) at 37° C. The sensorgram was recorded and subject to reference and buffer subtraction before evaluating by BIACORE® 8K Evaluation Software (version 1.1.1.7442). Association rates (kₒₙ) and dissociation rates (koff) were calculated using a simple one-to-one Langmuir binding model.
A general note: Surface plasmon resonance follows binding to a sensor surface in real time, without labels.

The target in assay [2] is T1, hu-IL-36β. The assay can be described thus: cell-based or functional assay.
A further assay has as its target T2, cy-IL-36β (cynomolgus monkey).
T2 chain: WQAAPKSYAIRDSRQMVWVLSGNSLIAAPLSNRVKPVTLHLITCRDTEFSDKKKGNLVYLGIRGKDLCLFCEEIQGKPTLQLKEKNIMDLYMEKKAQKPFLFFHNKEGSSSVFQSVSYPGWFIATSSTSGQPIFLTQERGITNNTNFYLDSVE
Put plainly: cell-based or functional assay.

The target in assay [3] is T1, hu-IL-36β. Put plainly: cell-based or functional assay.

Substitutions are numbered along the chain they refer to.

B1: mAb6_2.6 Fab (Fab, V domains shown)
VH: ELQLQESGPGLVKPSETLSLTCTVSGGSITASNYYWGWIRQPPGKGLEWIGSIDYTGSTYYEPSLKSRVTISVDTSKNQFSLKLSSVTAADTAVYYCATGNYYETYLGFDVWGQGTLVTVSS
VL: ESVLTQPPSVSGAPGQRVTISCTGSSSNIGAHYDVHWYQQLPGTAPKLLIYGNDNRPSGVPDRFSGSKSGTSASLAITGLQAEDEADYYCQSYDYSLSGYVFGGGTKLTVL
notes: Recombinant Fab with 8xHis tag
In the assay with hu-IL-36β [1], B1 displayed a kon of 850000 M⁻¹ s⁻¹.

B2: mAb6.0 IgG (antibody, V domains shown)
VH: B1 VH with E1Q, A31S, E62N, T99R, N101K
VL: QESVLTQPPSVSGAPGQRVTISCTGSSSNIGAGYDVHWYQQLPGTAPKLLIYGNTNRPSGVPDRFSGSKSGTSASLAITGLQAEDEADYYCQSYDISLSGWVFGGGTKLTVLG
B2: in the assay with hu-IL-36β [2], the “blocking potency relative to the natural antagonist IL-36Ra, HaCat IL-8 assay” value came to 1000 fold. For the same molecule, the “IC50, HEK Blue SEAP reporter assay with cynomolgus IL-36 on human IL-36 receptor” value with cy-IL-36β amounted to 1.96 nM. In the assay with hu-IL-36β [3], the “IC50, HEK Blue SEAP reporter assay” value amounted to 0.64 nM.
